Data on three substances can be found in patent publication EP1143253A1.

Assay [1] addresses human p97 (melanotransferrin), GPI-anchored membrane form (human) (UniProt P08582). The experiment in a line: FACS on Sf9 cells infected with p97 recombinant baculovirus p97 B-2-1; L235 supernatant, goat anti-mouse IgG-FITC.
The target is the same in assay [2]. The experiment in a line: FACS on Sf9 cells infected with p97 B-2-1, pre-incubated with PI-PLC; L235 supernatant, goat anti-mouse IgG-FITC.
Assay [3] shares this target. Description: FACS, L235 on SK-MEL-28 cells after PI-PLC treatment, against untreated stained cells. In general terms: Flow cytometry measures light scatter and fluorescence of single cells or particles in a stream.
Assay [4] has the same target. The experiment in a line: FACS, L235 on SK-MEL-28 cells after Pronase treatment, against untreated stained cells.
For assay [5] the target is unchanged. The experiment in a line: FACS, L235 on p97aWTBc7 cells after PI-PLC treatment, against untreated stained cells.
The target is the same in assay [6]. The experiment in a line: FACS on SK-MEL-28 cells pre-incubated with PI-PLC (60 min, 37 C), which removes p97; L235 supernatant, goat anti-mouse IgG-FITC.
The target is the same in assay [7]. The experiment in a line: FACS on Sf9 cells infected with p97 B-1-1, pre-incubated with PI-PLC; L235 supernatant, goat anti-mouse IgG-FITC.
For assay [8] the target is unchanged. Description: FACS, L235 on p97aWTBc3 cells after PI-PLC treatment, against untreated stained cells.
The target is the same in assay [9]. The experiment in a line: FACS on Sf9 cells infected with p97 recombinant baculovirus p97 B-1-1; L235 supernatant, goat anti-mouse IgG-FITC.
Assay [10] shares this target. The experiment in a line: FACS on SK-MEL-28 cells; L235 hybridoma supernatant, goat anti-mouse IgG-FITC.
In assay [11] the target is human transferrin receptor, membrane form (human) (UniProt P02786). Description: FACS, OKT9 on SK-MEL-28 cells after Pronase treatment, against untreated stained cells.
Assay [12] shares this target. Description: FACS, OKT9 on SK-MEL-28 cells after PI-PLC treatment, against untreated stained cells.
The target of assay [13] is Thy-1 on EL-4 mouse lymphoma cells (mouse) (UniProt P01831). The experiment in a line: FACS, T24/37.1 on EL-4 cells after PI-PLC treatment, against untreated stained cells.
Assay [14] has the same target. Description: FACS, T24/37.1 on EL-4 cells after Pronase treatment, against untreated stained cells.

Chain of UniProt P08582 (P08582 20-709): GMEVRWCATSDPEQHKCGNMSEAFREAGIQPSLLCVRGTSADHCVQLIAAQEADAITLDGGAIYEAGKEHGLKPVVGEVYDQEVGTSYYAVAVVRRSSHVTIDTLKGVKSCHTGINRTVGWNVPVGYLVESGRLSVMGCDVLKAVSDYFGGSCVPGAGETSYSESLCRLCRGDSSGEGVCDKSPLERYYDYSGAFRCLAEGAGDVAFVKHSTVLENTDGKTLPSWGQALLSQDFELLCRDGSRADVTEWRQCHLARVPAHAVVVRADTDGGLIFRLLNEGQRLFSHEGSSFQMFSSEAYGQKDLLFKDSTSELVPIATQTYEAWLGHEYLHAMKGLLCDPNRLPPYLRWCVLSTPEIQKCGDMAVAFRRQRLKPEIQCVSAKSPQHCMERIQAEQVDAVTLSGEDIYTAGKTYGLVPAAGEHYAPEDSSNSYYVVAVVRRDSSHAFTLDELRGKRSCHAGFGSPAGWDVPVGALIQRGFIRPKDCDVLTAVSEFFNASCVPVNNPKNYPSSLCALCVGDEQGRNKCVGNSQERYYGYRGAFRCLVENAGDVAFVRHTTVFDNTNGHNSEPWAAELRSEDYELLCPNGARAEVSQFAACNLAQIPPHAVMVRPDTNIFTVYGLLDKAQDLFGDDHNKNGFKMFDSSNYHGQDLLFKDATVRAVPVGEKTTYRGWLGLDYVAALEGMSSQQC
Chain of UniProt P01831 (P01831 20-131): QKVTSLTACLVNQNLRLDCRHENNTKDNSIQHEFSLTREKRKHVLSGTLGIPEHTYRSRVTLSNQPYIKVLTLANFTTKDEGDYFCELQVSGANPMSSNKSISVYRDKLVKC
Chain of UniProt P02786 (P02786 whole entry): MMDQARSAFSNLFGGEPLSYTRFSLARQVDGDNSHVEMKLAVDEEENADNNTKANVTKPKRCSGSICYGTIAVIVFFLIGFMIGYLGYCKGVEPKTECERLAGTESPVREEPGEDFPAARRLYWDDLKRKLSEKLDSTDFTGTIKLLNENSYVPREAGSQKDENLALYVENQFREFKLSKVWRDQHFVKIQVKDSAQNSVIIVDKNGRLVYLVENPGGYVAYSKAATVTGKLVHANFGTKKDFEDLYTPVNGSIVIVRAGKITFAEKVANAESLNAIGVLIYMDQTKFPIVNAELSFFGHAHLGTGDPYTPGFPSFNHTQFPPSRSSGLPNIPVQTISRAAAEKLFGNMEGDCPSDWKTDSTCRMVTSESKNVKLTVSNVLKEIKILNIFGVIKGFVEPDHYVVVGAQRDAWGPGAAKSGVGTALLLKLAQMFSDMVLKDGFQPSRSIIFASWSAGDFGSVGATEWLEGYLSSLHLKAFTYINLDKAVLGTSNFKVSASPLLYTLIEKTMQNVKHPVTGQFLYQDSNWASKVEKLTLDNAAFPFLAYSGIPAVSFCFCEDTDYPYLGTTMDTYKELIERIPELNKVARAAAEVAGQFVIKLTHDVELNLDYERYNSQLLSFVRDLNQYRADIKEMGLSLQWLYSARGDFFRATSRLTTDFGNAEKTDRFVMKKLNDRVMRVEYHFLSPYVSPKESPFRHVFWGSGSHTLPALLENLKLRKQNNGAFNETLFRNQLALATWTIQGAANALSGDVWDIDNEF

In the case of L235 anti-human p97 monoclonal antibody, the FLUORESCENCE - converted linear value (converted linear value) stood at 97.4 in [1]; 6.85 in [2]; 4.52 in assay [6]; 5.74 in [7]; 112 in assay [9]; 128 in assay [10]. The Fluorescene Intensity (% of Control) in assay [3] was 10.8 % of Control; in [4], 82.6 % of Control; in [5], 7.5 % of Control; in assay [8], 6.8 % of Control.
On to “OKT9 anti-human transferrin receptor monoclonal antibody”, for which the Fluorescene Intensity (% of Control) was 15.9 % of Control in [11] and 120 % of Control in [12].
T24/37.1 MAb (anti-Thy-1) (antibody): the Fluorescene Intensity (% of Control) in assay [13] is 32.5 % of Control; in assay [14] it was 136 % of Control.
